Laboratory results reported in patent US20260028424A1 (GRANULAR THERAPEUTICS, published 2026).
Where a chain is given by its changes, count along the chain named.

Tests used:
[1] = target: c-Kit (antigen of the binding assay of FIG. 9A) (Homo sapiens (Human), UniProt P10721 26-524); test: plate binding assay on Human c-KIT, A450-A630 (ratio corrected)
[2] = target: T1, biotinylated human CD203c (bio-huCD203c, Acro, Cat. nr. H52H4) (human, UniProt O14638 49-875, limits assumed, biotinylated (site not stated)); test: SPR, single-cycle protocol, Bio-huCD203c; table gives Rmax, Chi2 and KD only
T1 construct: Captured on a Biotin CAPture chip for SPR
T1 sequence (looked up): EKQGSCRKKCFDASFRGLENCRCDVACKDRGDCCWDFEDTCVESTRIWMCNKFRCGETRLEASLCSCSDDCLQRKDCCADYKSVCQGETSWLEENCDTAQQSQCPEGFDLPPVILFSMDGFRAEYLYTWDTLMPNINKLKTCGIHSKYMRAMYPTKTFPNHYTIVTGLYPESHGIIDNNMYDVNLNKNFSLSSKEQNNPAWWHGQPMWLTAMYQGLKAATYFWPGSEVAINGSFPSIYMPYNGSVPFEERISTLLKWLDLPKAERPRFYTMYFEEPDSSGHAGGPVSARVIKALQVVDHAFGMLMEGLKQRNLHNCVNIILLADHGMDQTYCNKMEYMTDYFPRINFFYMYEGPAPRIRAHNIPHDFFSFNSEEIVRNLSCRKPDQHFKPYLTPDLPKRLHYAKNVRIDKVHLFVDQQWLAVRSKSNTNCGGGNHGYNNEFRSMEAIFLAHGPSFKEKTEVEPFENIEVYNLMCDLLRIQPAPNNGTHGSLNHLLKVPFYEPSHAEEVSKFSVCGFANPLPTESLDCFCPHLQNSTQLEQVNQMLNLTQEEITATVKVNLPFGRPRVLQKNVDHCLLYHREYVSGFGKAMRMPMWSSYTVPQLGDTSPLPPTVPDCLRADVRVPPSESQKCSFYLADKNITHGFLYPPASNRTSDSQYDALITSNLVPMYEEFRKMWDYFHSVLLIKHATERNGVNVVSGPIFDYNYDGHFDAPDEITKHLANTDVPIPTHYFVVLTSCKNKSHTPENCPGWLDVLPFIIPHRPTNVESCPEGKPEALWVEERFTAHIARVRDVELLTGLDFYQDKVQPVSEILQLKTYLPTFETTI

human c-Kit (SPR) = human c-Kit (SPR) (human, UniProt P10721 26-520, limits assumed); test: SPR, single-cycle kinetics, Human C-kit
[3] = target: T2, biotinylated cynomolgus CD203c (bio-cyCD203c, Icosagen) (cynomolgus monkey, UniProt A0A2K5TKP4 31-874, biotinylated (site not stated)); test: SPR, single-cycle protocol, Bio-cyCD203c; table gives Rmax, Chi2 and KD only
T2 construct: Captured on a Biotin CAPture chip for SPR; also called cyno CD203c
T2 sequence: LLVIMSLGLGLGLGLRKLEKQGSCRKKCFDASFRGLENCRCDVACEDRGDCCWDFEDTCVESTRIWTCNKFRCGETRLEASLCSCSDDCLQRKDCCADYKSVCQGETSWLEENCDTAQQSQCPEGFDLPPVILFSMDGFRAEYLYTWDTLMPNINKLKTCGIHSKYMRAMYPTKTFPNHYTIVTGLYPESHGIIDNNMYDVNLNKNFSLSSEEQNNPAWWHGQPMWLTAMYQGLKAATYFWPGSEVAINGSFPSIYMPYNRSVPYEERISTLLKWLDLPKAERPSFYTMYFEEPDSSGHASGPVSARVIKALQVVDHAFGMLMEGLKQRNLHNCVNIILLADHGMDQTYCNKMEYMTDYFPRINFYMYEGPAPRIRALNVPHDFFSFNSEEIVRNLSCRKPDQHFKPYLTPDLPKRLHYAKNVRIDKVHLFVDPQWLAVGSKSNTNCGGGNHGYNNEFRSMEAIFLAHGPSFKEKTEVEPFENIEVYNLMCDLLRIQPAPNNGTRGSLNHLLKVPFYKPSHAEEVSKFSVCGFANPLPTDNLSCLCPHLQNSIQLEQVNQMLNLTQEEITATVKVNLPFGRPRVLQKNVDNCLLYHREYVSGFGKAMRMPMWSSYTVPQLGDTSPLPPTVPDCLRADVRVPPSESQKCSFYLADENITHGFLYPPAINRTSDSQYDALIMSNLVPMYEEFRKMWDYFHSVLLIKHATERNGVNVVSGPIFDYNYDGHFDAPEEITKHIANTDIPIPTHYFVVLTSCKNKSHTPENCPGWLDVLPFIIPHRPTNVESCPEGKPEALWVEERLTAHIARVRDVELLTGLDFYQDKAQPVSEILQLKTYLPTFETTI

cyno c-Kit (SPR) = cyno c-Kit (SPR) (cyno, UniProt F6V858 26-520 (rhesus entry)); test: SPR, single-cycle kinetics, Cynomolgus C-kit
[4] = target: T3, human CD203c expressed on the surface of KU812 cells (human, UniProt O14638 1-875); test: flow cytometry on KU812 cells, MFI (530/30 - 488nm) of live cells
T3 construct: whole, on cells; also called cell-surface CD203c; cell surface CD203c on KU812 cells
T3 sequence (looked up): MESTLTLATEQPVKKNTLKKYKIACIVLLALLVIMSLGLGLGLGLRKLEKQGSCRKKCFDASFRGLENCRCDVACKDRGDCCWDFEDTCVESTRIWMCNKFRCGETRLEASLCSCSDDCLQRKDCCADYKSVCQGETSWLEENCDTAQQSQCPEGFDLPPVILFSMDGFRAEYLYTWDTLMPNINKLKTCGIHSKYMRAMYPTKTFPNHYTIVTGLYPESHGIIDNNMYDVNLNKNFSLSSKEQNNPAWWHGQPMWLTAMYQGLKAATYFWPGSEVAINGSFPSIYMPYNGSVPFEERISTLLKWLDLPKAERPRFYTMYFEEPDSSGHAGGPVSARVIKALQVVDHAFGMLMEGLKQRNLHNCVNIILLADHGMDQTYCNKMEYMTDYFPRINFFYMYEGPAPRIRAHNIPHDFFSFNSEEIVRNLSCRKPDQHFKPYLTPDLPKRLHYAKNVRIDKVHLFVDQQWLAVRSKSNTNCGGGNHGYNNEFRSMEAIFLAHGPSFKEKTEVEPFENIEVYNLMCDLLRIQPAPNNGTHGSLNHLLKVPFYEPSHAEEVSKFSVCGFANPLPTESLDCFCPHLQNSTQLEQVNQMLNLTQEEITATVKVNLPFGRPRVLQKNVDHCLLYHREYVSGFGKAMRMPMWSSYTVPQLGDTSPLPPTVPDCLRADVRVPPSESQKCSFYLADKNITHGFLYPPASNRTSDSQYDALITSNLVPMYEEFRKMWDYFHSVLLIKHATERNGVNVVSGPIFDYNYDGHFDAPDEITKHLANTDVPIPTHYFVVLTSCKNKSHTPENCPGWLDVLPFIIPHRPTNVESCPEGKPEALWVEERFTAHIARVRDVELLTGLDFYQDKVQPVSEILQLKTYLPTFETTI

[5] = target: T4, rhesus monkey CD203c His-tagged recombinant protein (rhesus monkey, UniProt F6TH66 31-874); test: direct binding ELISA on rhesus CD203c, absorbance (blank corrected)
T4 construct: also called rhesus CD203c; not shown: His tag
T4 sequence: T2 sequence with E46K, E61A, S301G, L378F, P434R, K518E, L801F

[6] = target: T5, human CD203c His-tagged recombinant protein (human, UniProt O14638 49-875, limits assumed); test: direct binding ELISA on human CD203c, absorbance (blank corrected)
T5 construct: also called ENPP3; not shown: His tag
T5 sequence (looked up): T1 sequence (looked up)

cyno c-Kit (SPR), sequence (chain, as listed by the source): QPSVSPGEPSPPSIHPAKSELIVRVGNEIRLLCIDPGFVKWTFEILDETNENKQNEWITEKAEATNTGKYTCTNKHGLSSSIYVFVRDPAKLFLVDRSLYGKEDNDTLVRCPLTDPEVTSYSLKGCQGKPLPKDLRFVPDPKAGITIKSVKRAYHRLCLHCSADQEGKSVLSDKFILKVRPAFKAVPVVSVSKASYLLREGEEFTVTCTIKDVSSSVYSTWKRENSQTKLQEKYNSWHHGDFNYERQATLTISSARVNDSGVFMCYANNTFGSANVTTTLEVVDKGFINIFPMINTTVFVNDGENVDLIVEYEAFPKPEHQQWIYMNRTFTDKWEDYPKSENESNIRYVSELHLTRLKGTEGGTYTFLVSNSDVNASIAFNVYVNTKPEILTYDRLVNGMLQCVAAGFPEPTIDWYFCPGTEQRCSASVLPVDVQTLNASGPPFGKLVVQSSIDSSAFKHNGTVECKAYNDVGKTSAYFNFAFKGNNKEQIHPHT
c-Kit (antigen of the binding assay of FIG. 9A), sequence (P10721 26-524 limits assumed): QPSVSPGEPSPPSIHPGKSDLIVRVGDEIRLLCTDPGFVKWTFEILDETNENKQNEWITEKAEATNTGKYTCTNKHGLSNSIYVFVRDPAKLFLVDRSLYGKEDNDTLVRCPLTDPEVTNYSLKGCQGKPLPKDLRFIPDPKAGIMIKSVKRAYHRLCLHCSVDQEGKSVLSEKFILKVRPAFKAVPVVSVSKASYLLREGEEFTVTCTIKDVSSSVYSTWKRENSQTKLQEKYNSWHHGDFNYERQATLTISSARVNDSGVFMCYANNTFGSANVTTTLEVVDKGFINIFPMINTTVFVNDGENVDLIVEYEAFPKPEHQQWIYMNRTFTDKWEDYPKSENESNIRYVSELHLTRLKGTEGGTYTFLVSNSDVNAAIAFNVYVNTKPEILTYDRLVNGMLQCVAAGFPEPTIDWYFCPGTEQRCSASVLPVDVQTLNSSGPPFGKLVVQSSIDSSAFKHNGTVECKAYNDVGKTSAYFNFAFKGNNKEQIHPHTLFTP
human c-Kit (SPR), sequence (P10721 26-520 limits assumed): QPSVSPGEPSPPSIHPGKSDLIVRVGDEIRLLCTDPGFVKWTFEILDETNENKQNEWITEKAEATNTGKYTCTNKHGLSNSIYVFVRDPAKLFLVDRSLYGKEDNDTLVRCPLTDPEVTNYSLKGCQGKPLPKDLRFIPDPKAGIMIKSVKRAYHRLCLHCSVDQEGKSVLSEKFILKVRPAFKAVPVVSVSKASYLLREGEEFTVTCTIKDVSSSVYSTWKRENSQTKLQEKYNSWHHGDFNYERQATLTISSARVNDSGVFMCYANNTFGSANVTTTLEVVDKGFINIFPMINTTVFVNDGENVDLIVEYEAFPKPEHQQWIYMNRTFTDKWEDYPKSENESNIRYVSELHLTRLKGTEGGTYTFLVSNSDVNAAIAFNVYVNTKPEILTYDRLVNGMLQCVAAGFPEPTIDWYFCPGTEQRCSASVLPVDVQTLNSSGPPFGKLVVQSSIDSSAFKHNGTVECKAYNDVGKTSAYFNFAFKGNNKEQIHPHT

B1: F6/MH1 common light chain bispecific (anti-CD203c F6 x anti-c-Kit MH1) (bispecific antibody, V domains shown)
VH 1: QVQLVQSGAEVKKPGASVKVSCKASGYTFTDYYMNWVRQAPGQGLEWMGRIYPGSGNTYYAQKFQGRVTMTRDTSTSTVYMELSSLRSEDTAVYYCARGVYYYDYWGQGTLVTVSS
VH 2: EVQLVQSGAEVKKPGESLKISCKGSGYRFASNWIGWVRQMPGKGLEWMGEIYPGDSNTRYSPSFQGQVTISADKSISTAYLQWSSLKASDTAMYYCARKDYYYYAMDVWGQGTTVTVSS
VL: DIQMTQSPSSLSASVGDRVTITCRASQGIRTNLAWFQQKPGKAPKSLIYAASSLQSGVPSRFSGSGSGTDFTLTISSLQPEDFATYYCQQYNSYPRTFGGGTKVEIK
notes: Knob-in-hole IgG1null bispecific with human Ckappa; also called F6/MH1 bispecific molecule
- EC50 (read off the curve) [1]: ~0.5 µg/mL

B2: bispecific pair with alternative common light chain VL1: MH1 VH / 2.7_1 VH / VL1 (bispecific antibody, V domains shown)
VH 1: B1 VH 1
VH 2: EVQLVESGPGLVKPSETLSLTCTVSGGSISSSSYYWGWIRQPPGKGLEWIGSMYYSGSTYHNPSLKSRVIISVDTSKNQFSLKLSSVTAADTAVYYCARHYITVAGIFDYWGQGTLVTVSS
VL: QSVLTQPPSASGTPGQRATISCRASQGIRTNLAWYQQVPGTAPKLLIYAASSLQSGVPSRFSGSKSGTSASLAISGLQSEDEADYYCQQYNSYPRTFGGGTKLTVL
notes: Format as tested (bispecific or separate IgGs) is not described beyond 'bispecific pairs'
- EC50 (read off the curve) [1]: ~0.06 µg/mL

B3: FJ2156_MH1_A x F6_12C huIgG1 KIH (bispecific antibody, V domains shown)
VH 1: B1 VH 1 with Q1E, G66D
VH 2: B1 VH 2 with E1Q, S61R, Y104G, A105I
VL: B1 VL
notes: also called MH1_A/F6.12_C
- Kd [2]: 84.8 nM
- Kd (human c-Kit (SPR)): 86.1 nM
- koff (human c-Kit (SPR)): 0.0171 s⁻¹
- kon (human c-Kit (SPR)): 199000 M⁻¹ s⁻¹
- Kd [3]: 51.8 nM
- Kd (cyno c-Kit (SPR)): 91.3 nM
- koff (cyno c-Kit (SPR)): 0.0272 s⁻¹
- kon (cyno c-Kit (SPR)): 297000 M⁻¹ s⁻¹

B4: FJ2156_MH1_A x F6_12B huIgG1 KIH (bispecific antibody, V domains shown)
VH 1: B1 VH 1 with Q1E, G66D
VH 2: B1 VH 2 with E1Q, E46Q, Y104G, A105I
VL: B1 VL
notes: also called MH1_A/F6.12_B
- Kd [2]: 98.5 nM
- Kd (human c-Kit (SPR)): 82.7 nM
- koff (human c-Kit (SPR)): 0.0166 s⁻¹
- kon (human c-Kit (SPR)): 201000 M⁻¹ s⁻¹
- Kd [3]: 68.2 nM
- Kd (cyno c-Kit (SPR)): 95.5 nM
- koff (cyno c-Kit (SPR)): 0.0277 s⁻¹
- kon (cyno c-Kit (SPR)): 291000 M⁻¹ s⁻¹

B5: bispecific pair with alternative common light chain VL4: MH1 VH / 2.14_1.2 VH / VL4 (bispecific antibody, V domains shown)
VH 1: B1 VH 1
VH 2: QVQLQESGPGLVKPSQTLSLTCTVSGGSISSGGYYWSWIRQHPGKGLEWIGIIYYSGSTYYNPSLKSRVTISVDTSKNQFSLKLNSVTAADTAVFYCARVAIVTTIPGGMDVWGQGTTVTVSS
VL: EIVLTQSPDFQSVTPKEKVTITCRASQGIRTNLAWYQQKPDQSPKLLIKYASQSFSGVPSRFSGSGSGTDFTLTINSLEAEDAATYYCQQYNSYPRTFGQGTKVEIK
- EC50 (read off the curve) [1]: ~0.06 µg/mL

B6: 17 (antibody, V domains shown)
VH: B1 VH 2 with A30T, N32Y, E50I, N57D, Y104N, D107P
VL: B1 VL
notes: also called variant 17; 17 VH domain
- binding result [4]: binds
- binding result [5]: binds
- binding result [6]: binds

B7: bispecific pair with alternative common light chain VL2: MH1 VH / 2.7_1.2 VH / VL2 (bispecific antibody, V domains shown)
VH 1: B1 VH 1
VH 2: B2 VH 2
VL: B2 VL with A49S, A50N, S51N, S52Q, L53R, Q54P, S59D
- EC50 (read off the curve) [1]: ~0.06 µg/mL
